Assay: yeast display, Sf9 membrane polyspecificity reagent, FACS + sequencing; frameworks hold sequencing errors
How it was run: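 Synthetic nanobody libraries on Saccharomyces cerevisiae BJ5465 were galactose-induced for 36–48 hours, stained 1 hour at 4 °C with 10% biotinylated, detergent-solubilized Sf9 membrane reagent and enriched on streptavidin microbeads. FACS then separated cells into low and high (top ~1%) gates by anti-HA (expression) and streptavidin (reagent binding) fluorescence. Genes were colony-PCR amplified, MiSeq 2 × 250 sequenced and CDR-length filtered. A clone's polyreactivity label is that of its gate of origin.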

| Sequence | polyreactivity (PSR sort gate) |
| --- | --- |
| QVQLVESGGGLVQAGGSLRLSCAASGYAMGWYRQAPGKERELVAAISWSGDITYADSVKGRFTISRDNAKNTVYLQMNRLKPEDTAVYYCNADRYTGRDGEQSLDYWGQGTQVTVSS | low polyreactivity |
| QVQLVESGGGLVQAGGSLRLSCAASGSTVENNVMGWYRQAPGQERELVATITWGDGSTSYADSVKGRFTISRDNAKNTVYLKMNSLKTEVTAVYYCDAVDRIGYGKNQDHDYWGQGTQVTVSS | low polyreactivity |
| QVQLVESGGGLVQGGGSLRLSCAASGSTFGRYAMGWYRQAPGKEREFVAGITGRGGSTYYADSVKGRFTISRDNAKNTVYLQMNSLKPQDTAVYYCAAGYRVGYLRAGDYWGQGTQVTVSS | high polyreactivity |
| QVQLVESGGGLVQAGGSLRLSCAASGSIFLYNDMGWYRQAPGKERELVAAISSGGNTNYADSVTGRFTISRDNAKNTVYLQMNSLKPEDTAVYYCNAAWIRVFQYTLYKYVYWGQGTQVTVSS | low polyreactivity |
| QVQLVESGGGLVQAGGSLRFSCAAYGFIFTQYAMGCYRRAPGKERELVAAISWNGGRTYYADSVNGRFTISRDNEKNTVYLQMNSLKPEDTAVYYCAARIYLSKSFNYWGQGTQVTVSS | high polyreactivity |
| QVQLVESGGGLVQAGGSLRISCAASGSTNEYAMGWYRQAPGKERELVAAITWSGGRTYYADSVKGRFTISRDNAKNTVYLQMNSLKPEDTAVYYCAKAYYARHGRYTYYSWGQGTQVTVSS | high polyreactivity |
| QVQLVESGGGLVQAGGSLRLSCAASGRILWDYAMGWYRQAPGKERELVAAISTSSGSTYYADSVKGRFTISRDNAKNTVKLQMNSLKPEHTAVYYCAADNDYSPPWFEYWGQGTQVTVSS | low polyreactivity |
| QVQLVESGGGLVQAGGSLRLSCAASGSTFGYYAMGWYRQAPGNEREFVAAITYGDGNTYYADSVKGRFTISRDNAKNTVYLQMNRLKPEDTAVYYCAKYYWAPTGAHGGYGYWGQGTQVTVSS | low polyreactivity |
| QVQLVESGGGLVQAGGSLRLSCAASGSIFDRYDMGWYRQAPGKERELVAVINWSGGTTYYADSVKGRFTISRDNAKNTVYLQMNSLKPEDTAVYYCAADGSKPYAMDYWGQGTQVTVSS | high polyreactivity |
| QVQLVESGGGLVQAGGRLRLSCGASGIIFVYYTMGWDRQAPGKERELVAAITSGGSTYYADSVKGRFTISRDNAKNTVFLQINSLKPEDTAVYYCAAVGRPPYAGDRGFRGQGTQVTVSS | high polyreactivity |
| QVQLVESGGGLVQAGGSLRLSCAASGIIFRSYAMGWYRQAPGKERELVAAISRRGGSTYYADSVKGRFTISRDNAKNTVYLQMNSLKPEDTAVYYCAATVLSSPEPYDYWGQGTQVTVSS | high polyreactivity |
| QVQLVESGGGLVQAGGSLRLSCAASGSTFDRYAMAWYRQAPGKERELVAAISKNGGRTYYADSVKGRFTISRDNAKNTVYLQMNSLKPEDTAVYYCAKDIIKYDYDYWGQGTQVTVSS | low polyreactivity |
| QVQLVESGGGLVQAGGSLRLSCAASGSTFGRYVMGWYRQAPGKDRELVAAISKNAGSTYYADSVKGRFTISRDNAKNTVYLQMNSLKPEDTAVYYCAADWRTKGYDSLGQGTQVTVSS | high polyreactivity |
| QVQLVETGGGLVQAGGSLRLSCAASGSIFGPYAMAWYRQAPGKERELVAVISRSGGSTYYADSVKGRFTISRDNAKNTVYLQMNSLKPEDTAVYYCAAYRGPRADYYWGQGTQVTVSS | high polyreactivity |
| QVQLVESGGGLVQAGGSLRLSYAASGSIFGRYVMGWYRQAPGKERELVAAIKRSGGRTYYADSVKGRFTISRDNAKNTVYLQMNSLKPEDTAVYYCATYTGYSASKEVPYDYWGQGTQVTVSS | high polyreactivity |
| QVQLVESGGGLVQAGGRLRLSCAASGIIFGYYAMGWYREAPGKEREFVAAINYSGVSTYYADSVKGRLTISRDNAKNTVYLQMNSLKPEDTAVYYCAADFRIVVYGWGGSHMDYWGQGTQVTVSS | low polyreactivity |
| QVQLVESGGGLVQAGGSLRLSCAASGFIFASYAMGWYRQAPVKERELVAAISSCGGRTYYADSVKGRFTISRDNAKNTVNLQMNSLKPEDTAVYYCAADWRFTYDYWGQGTQVTVSS | high polyreactivity |
| QVQLVESGGGLVQAGGSLRLSCAASGIIFYKYAMGWYRQAPGKERELVAVISSGGSTYYADSVKGRFTISRDNAKNTVYLQMNSLKPEYNAVYYCNADCYRRGYDYWGKGTQVTVSS | high polyreactivity |
| QVQLVESGGGLVQEGGSLRLICAASGRTLNSYDMGWYRQEPGKERELVAAISWSGTNTYYSDSVKGRFTISRDNAKNTVYLQMNCLKPEDTAVYYCNAVTKATRYEYWGQGTQVTVSS | high polyreactivity |
| QVQLLESGGGLGQAGGSLRLSCAASGIIFRDSGMGWYRQAPGKEREFVATITYSGGGTYYADSVKGRFTISRDHAKNTVYLQMNSLKPEDTAVYYCAAYPFYYDLAYDYWGQGTQVTVSS | low polyreactivity |
| QVQLVESGGGLVQAGGSLRLLCAASGFTFFRYAKGWYRQAPGKERELLATINWSGGRTYYADSVKGRFTISRDNAKNTVYLQMNSLKPEDTAVYYSNAYYPSSFWRMDYWGQGTQVTVSS | high polyreactivity |
| QVQLVESGGGLVQAGGSLRLSCAASGLTCYYYARGLYRQAPGKERELVADISSGGSTKYADSVKGRFTISRDNAKNTVYLQMNSLKPEDTAVYYCATGYFCGFRYRPYYYWGQGTQVTVSS | high polyreactivity |
